Reference: the supplement of paper PMC9112550, “Optimization of the antimicrobial peptide Bac7 by deep mutational scanning” (BMC Biology, 2022)

System: Escherichia coli TOP10
Assay: shrunken log2 fold change of peptide-encoding DNA abundance (4.5 h post-induction vs induction); higher = less antimicrobial activity (less host growth inhibition)
Conditions: time post-induction: 4.5 h; library: site-saturation at positions 5, 18, 19, 20
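Note: peptides expressed intracellularly from a pBAD plasmid library in pooled LB shake-flask culture, induced with 0.3% L-arabinose, DNA abundance read by NGS, three biological replicates, DESeq2 with apeglm shrinkage.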

Row | Sequence | shrunken log2 fold change
1 | RRIRKRPPRLPRPRPRPAAKPRP | 0.0103
2 | RRIRKRPPRLPRPRPRPAAVPRP | 0.188
3 | RRIRKRPPRLPRPRPRPACRPRP | 0.789
4 | RRIRKRPPRLPRPRPRPAEKPRP | 0.477
5 | RRIRKRPPRLPRPRPRPAFWPRP | 0.625
6 | RRIRKRPPRLPRPRPRPAGFPRP | 0.0388
7 | RRIRKRPPRLPRPRPRPAGVPRP | 0.685
8 | RRIRKRPPRLPRPRPRPAHAPRP | 1.11
9 | RRIRKRPPRLPRPRPRPAHEPRP | 0.816
10 | RRIRKRPPRLPRPRPRPAHLPRP | -0.00667
11 | RRIRKRPPRLPRPRPRPAHSPRP | 0.0695
12 | RRIRKRPPRLPRPRPRPAICPRP | 0.0922
13 | RRIRKRPPRLPRPRPRPAKEPRP | -0.0233
14 | RRIRKRPPRLPRPRPRPALWPRP | 0.27
15 | RRIRKRPPRLPRPRPRPAMHPRP | 0.402
16 | RRIRKRPPRLPRPRPRPAMTPRP | 0.596
17 | RRIRKRPPRLPRPRPRPAMVPRP | 0.87
18 | RRIRKRPPRLPRPRPRPANRPRP | 0.167
19 | RRIRKRPPRLPRPRPRPAPLPRP | 0.929
20 | RRIRKRPPRLPRPRPRPAQRPRP | 0.946
21 | RRIRKRPPRLPRPRPRPAWMPRP | 0.212
22 | RRIRKRPPRLPRPRPRPAWQPRP | 0.714
23 | RRIRKRPPRLPRPRPRPAYCPRP | 0.0801
24 | RRIRKRPPRLPRPRPRPAYPPRP | -0.0401
25 | RRIRKRPPRLPRPRPRPCCLPRP | -0.0964

Row | Sequence | shrunken log2 fold change
26 | RRIRKRPPRLPRPRPRPCDKPRP | 0.000564
27 | RRIRKRPPRLPRPRPRPCDMPRP | -0.00141
28 | RRIRKRPPRLPRPRPRPCEGPRP | 0.0796
29 | RRIRKRPPRLPRPRPRPCERPRP | 0.019
30 | RRIRKRPPRLPRPRPRPCFMPRP | -0.0787
31 | RRIRKRPPRLPRPRPRPCHHPRP | -0.411
32 | RRIRKRPPRLPRPRPRPCITPRP | -0.146
33 | RRIRKRPPRLPRPRPRPCKKPRP | -0.0301
34 | RRIRKRPPRLPRPRPRPCKYPRP | 0.0409
35 | RRIRKRPPRLPRPRPRPCLGPRP | 0.0457
36 | RRIRKRPPRLPRPRPRPCLYPRP | -0.0745
37 | RRIRKRPPRLPRPRPRPCMFPRP | -0.167
38 | RRIRKRPPRLPRPRPRPCNLPRP | 0.0104
39 | RRIRKRPPRLPRPRPRPCPEPRP | 0.196
40 | RRIRKRPPRLPRPRPRPCPYPRP | 0.151
41 | RRIRKRPPRLPRPRPRPCQIPRP | 0.0947
42 | RRIRKRPPRLPRPRPRPCQLPRP | -0.0631
43 | RRIRKRPPRLPRPRPRPCQWPRP | -0.0983
44 | RRIRKRPPRLPRPRPRPCTKPRP | 0.0518
45 | RRIRKRPPRLPRPRPRPCTYPRP | 0.0972
46 | RRIRKRPPRLPRPRPRPCVCPRP | 0.0462
47 | RRIRKRPPRLPRPRPRPCVEPRP | 0.13
48 | RRIRKRPPRLPRPRPRPCWMPRP | 0.446
49 | RRIRKRPPRLPRPRPRPCWSPRP | 0.00256
50 | RRIRKRPPRLPRPRPRPCYWPRP | 0.0448

Row | Sequence | shrunken log2 fold change
51 | RRIRKRPPRLPRPRPRPDAEPRP | 1.59
52 | RRIRKRPPRLPRPRPRPDCFPRP | 0.315
53 | RRIRKRPPRLPRPRPRPDCVPRP | 0.342
54 | RRIRKRPPRLPRPRPRPDDAPRP | 1.47
55 | RRIRKRPPRLPRPRPRPDEKPRP | 0.411
56 | RRIRKRPPRLPRPRPRPDEPPRP | 2.05
57 | RRIRKRPPRLPRPRPRPDFVPRP | 0.0472
58 | RRIRKRPPRLPRPRPRPDGEPRP | 1.16
59 | RRIRKRPPRLPRPRPRPDGLPRP | -0.162
60 | RRIRKRPPRLPRPRPRPDIPPRP | -0.109
61 | RRIRKRPPRLPRPRPRPDMNPRP | 0.375
62 | RRIRKRPPRLPRPRPRPDNEPRP | 0.665
63 | RRIRKRPPRLPRPRPRPDPQPRP | 0.729
64 | RRIRKRPPRLPRPRPRPDQMPRP | -0.0646
65 | RRIRKRPPRLPRPRPRPDQNPRP | 0.678
66 | RRIRKRPPRLPRPRPRPDQWPRP | 0.376
67 | RRIRKRPPRLPRPRPRPDTQPRP | 0.202
68 | RRIRKRPPRLPRPRPRPDVCPRP | -0.0122
69 | RRIRKRPPRLPRPRPRPDVLPRP | 0.0156
70 | RRIRKRPPRLPRPRPRPDWQPRP | -0.0216
71 | RRIRKRPPRLPRPRPRPDWWPRP | -0.0103
72 | RRIRKRPPRLPRPRPRPDYEPRP | -0.164
73 | RRIRKRPPRLPRPRPRPDYQPRP | -0.0353
74 | RRIRKRPPRLPRPRPRPDYTPRP | -0.193
75 | RRIRKRPPRLPRPRPRPEDEPRP | 2.15

Row | Sequence | shrunken log2 fold change
76 | RRIRKRPPRLPRPRPRPEDLPRP | 1.8
77 | RRIRKRPPRLPRPRPRPEDSPRP | 1.28
78 | RRIRKRPPRLPRPRPRPEEAPRP | 3.85
79 | RRIRKRPPRLPRPRPRPEFFPRP | 0.7
80 | RRIRKRPPRLPRPRPRPEFMPRP | 0.541
81 | RRIRKRPPRLPRPRPRPEFRPRP | 0.129
82 | RRIRKRPPRLPRPRPRPEFWPRP | 0.807
83 | RRIRKRPPRLPRPRPRPEGAPRP | 1.54
84 | RRIRKRPPRLPRPRPRPEGTPRP | 0.0154
85 | RRIRKRPPRLPRPRPRPEHNPRP | 0.368
86 | RRIRKRPPRLPRPRPRPEISPRP | -0.0587
87 | RRIRKRPPRLPRPRPRPEITPRP | 2.03
88 | RRIRKRPPRLPRPRPRPEIVPRP | 1.08
89 | RRIRKRPPRLPRPRPRPEKIPRP | 0.185
90 | RRIRKRPPRLPRPRPRPELVPRP | 0.133
91 | RRIRKRPPRLPRPRPRPEMLPRP | 2
92 | RRIRKRPPRLPRPRPRPEMQPRP | 1.92
93 | RRIRKRPPRLPRPRPRPENCPRP | 0.654
94 | RRIRKRPPRLPRPRPRPENTPRP | 0.44
95 | RRIRKRPPRLPRPRPRPEQPPRP | 0.328
96 | RRIRKRPPRLPRPRPRPERIPRP | 0.00934
97 | RRIRKRPPRLPRPRPRPERRPRP | 0.337
98 | RRIRKRPPRLPRPRPRPESVPRP | 0.234
99 | RRIRKRPPRLPRPRPRPESWPRP | 1.02
100 | RRIRKRPPRLPRPRPRPETEPRP | 0.0991

Row | Sequence | shrunken log2 fold change
101 | RRIRKRPPRLPRPRPRPEVCPRP | 0.0227
102 | RRIRKRPPRLPRPRPRPEVLPRP | 1.57
103 | RRIRKRPPRLPRPRPRPEVQPRP | 3.94
104 | RRIRKRPPRLPRPRPRPEWVPRP | 0.478
105 | RRIRKRPPRLPRPRPRPFAHPRP | -0.00992
106 | RRIRKRPPRLPRPRPRPFALPRP | 0.186
107 | RRIRKRPPRLPRPRPRPFANPRP | -0.0377
108 | RRIRKRPPRLPRPRPRPFAYPRP | 0.0165
109 | RRIRKRPPRLPRPRPRPFCGPRP | 0.345
110 | RRIRKRPPRLPRPRPRPFCPPRP | 0.0562
111 | RRIRKRPPRLPRPRPRPFDQPRP | -0.0318
112 | RRIRKRPPRLPRPRPRPFFAPRP | 0.645
113 | RRIRKRPPRLPRPRPRPFFQPRP | 0.346
114 | RRIRKRPPRLPRPRPRPFGPPRP | 0.325
115 | RRIRKRPPRLPRPRPRPFHFPRP | -0.0346
116 | RRIRKRPPRLPRPRPRPFHKPRP | -0.00277
117 | RRIRKRPPRLPRPRPRPFHRPRP | -0.0303
118 | RRIRKRPPRLPRPRPRPFIMPRP | -0.191
119 | RRIRKRPPRLPRPRPRPFKFPRP | -0.0557
120 | RRIRKRPPRLPRPRPRPFKHPRP | -0.0024
121 | RRIRKRPPRLPRPRPRPFLLPRP | -0.399
122 | RRIRKRPPRLPRPRPRPFLWPRP | -0.119
123 | RRIRKRPPRLPRPRPRPFLYPRP | -0.436
124 | RRIRKRPPRLPRPRPRPFMCPRP | 0.0653
125 | RRIRKRPPRLPRPRPRPFMKPRP | -0.157

Row | Sequence | shrunken log2 fold change
126 | RRIRKRPPRLPRPRPRPFMQPRP | -0.0285
127 | RRIRKRPPRLPRPRPRPFPRPRP | 0.297
128 | RRIRKRPPRLPRPRPRPFQCPRP | -0.01
129 | RRIRKRPPRLPRPRPRPFQTPRP | 0.12
130 | RRIRKRPPRLPRPRPRPFRCPRP | -0.142
131 | RRIRKRPPRLPRPRPRPFRNPRP | -0.309
132 | RRIRKRPPRLPRPRPRPFRQPRP | -0.0695
133 | RRIRKRPPRLPRPRPRPFRVPRP | -0.035
134 | RRIRKRPPRLPRPRPRPFSHPRP | -0.131
135 | RRIRKRPPRLPRPRPRPFSYPRP | -0.324
136 | RRIRKRPPRLPRPRPRPFTFPRP | -0.325
137 | RRIRKRPPRLPRPRPRPFTPPRP | 0.0993
138 | RRIRKRPPRLPRPRPRPFTTPRP | -0.243
139 | RRIRKRPPRLPRPRPRPFVIPRP | -0.363
140 | RRIRKRPPRLPRPRPRPFVPPRP | -0.297
141 | RRIRKRPPRLPRPRPRPFVSPRP | -0.176
142 | RRIRKRPPRLPRPRPRPFYCPRP | -0.0322
143 | RRIRKRPPRLPRPRPRPGANPRP | 0.179
144 | RRIRKRPPRLPRPRPRPGAQPRP | 0.496
145 | RRIRKRPPRLPRPRPRPGDDPRP | 0.758
146 | RRIRKRPPRLPRPRPRPGDPPRP | 1.21
147 | RRIRKRPPRLPRPRPRPGEEPRP | 0.108
148 | RRIRKRPPRLPRPRPRPGGGPRP | 0.976
149 | RRIRKRPPRLPRPRPRPGGMPRP | 0.633
150 | RRIRKRPPRLPRPRPRPGHGPRP | 0.16
